# Source: paper PMC12990809
# Tests used:
# Test in all cases: pulldown
# [1] = molecular target: T1, PK01594.1 (Cannabis sativa) (UniProt A0A803NG34); details: 20 nM protein, 1.5 uM RNA pool; 20 mM HEPES pH 7.8, 70 mM KCl, 10 mM NaCl, 10% glycerol, 2 mM DTT, 0.1 ug/uL BSA; 30 min, 4 C
# T1 sequence: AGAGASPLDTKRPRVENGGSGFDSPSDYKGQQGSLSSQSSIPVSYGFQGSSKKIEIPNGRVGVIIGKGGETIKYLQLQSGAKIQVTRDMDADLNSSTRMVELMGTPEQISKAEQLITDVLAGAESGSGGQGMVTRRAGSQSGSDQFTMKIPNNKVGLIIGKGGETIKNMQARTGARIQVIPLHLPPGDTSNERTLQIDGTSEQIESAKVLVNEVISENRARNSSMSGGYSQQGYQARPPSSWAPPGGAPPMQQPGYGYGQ
# [2] = molecular target: T2, qkr58E-2 (Drosophila melanogaster) (UniProt Q5BID2); details: 20 nM protein, 1.5 uM RNA pool; 20 mM HEPES pH 7.8, 70 mM KCl, 10 mM NaCl, 10% glycerol, 2 mM DTT, 0.1 ug/uL BSA; 30 min, 4 C
# T2 sequence: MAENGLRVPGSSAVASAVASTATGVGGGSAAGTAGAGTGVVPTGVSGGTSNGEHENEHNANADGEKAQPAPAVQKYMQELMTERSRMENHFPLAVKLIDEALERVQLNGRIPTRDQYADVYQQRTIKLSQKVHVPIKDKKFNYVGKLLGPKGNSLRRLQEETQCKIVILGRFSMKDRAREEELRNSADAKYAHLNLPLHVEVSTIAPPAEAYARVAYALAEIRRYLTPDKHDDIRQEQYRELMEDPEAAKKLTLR
# [3] = molecular target: T3, Hrb27C (Drosophila melanogaster) (UniProt P48809); details: 20 nM protein, 1.5 uM RNA pool; 20 mM HEPES pH 7.8, 70 mM KCl, 10 mM NaCl, 10% glycerol, 2 mM DTT, 0.1 ug/uL BSA; 30 min, 4 C (protocol of this paper; not …); cited from earlier work
# T3 sequence: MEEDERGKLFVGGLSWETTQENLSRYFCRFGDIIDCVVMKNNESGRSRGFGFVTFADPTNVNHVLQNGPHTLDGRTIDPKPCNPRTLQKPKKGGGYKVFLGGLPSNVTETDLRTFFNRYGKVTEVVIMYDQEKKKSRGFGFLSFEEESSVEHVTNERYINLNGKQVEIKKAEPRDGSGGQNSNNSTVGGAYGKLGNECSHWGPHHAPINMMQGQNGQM
# [4] = molecular target: T4, Smp_024140 (Schistosoma mansoni) (UniProt G4VQ61); details: 20 nM protein, 1.5 uM RNA pool; 20 mM HEPES pH 7.8, 70 mM KCl, 10 mM NaCl, 10% glycerol, 2 mM DTT, 0.1 ug/uL BSA; 30 min, 4 C
# T4 sequence: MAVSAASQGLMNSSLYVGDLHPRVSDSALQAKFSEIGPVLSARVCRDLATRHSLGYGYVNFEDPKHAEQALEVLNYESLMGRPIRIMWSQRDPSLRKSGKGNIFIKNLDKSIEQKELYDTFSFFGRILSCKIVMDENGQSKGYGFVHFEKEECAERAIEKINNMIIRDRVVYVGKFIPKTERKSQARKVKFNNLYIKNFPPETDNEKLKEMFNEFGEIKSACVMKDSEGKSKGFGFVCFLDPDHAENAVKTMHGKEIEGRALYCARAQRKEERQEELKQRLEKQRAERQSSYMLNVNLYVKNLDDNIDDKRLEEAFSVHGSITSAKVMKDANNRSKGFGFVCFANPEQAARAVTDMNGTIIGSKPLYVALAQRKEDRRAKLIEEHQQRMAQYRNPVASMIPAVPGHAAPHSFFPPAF
# [5] = molecular target: T5, RNPC3 ins163_E (Gallus gallus) (UniProt A0A8V0ZU58); details: 20 nM protein, 1.5 uM RNA pool; 20 mM HEPES pH 7.8, 70 mM KCl, 10 mM NaCl, 10% glycerol, 2 mM DTT, 0.1 ug/uL BSA; 30 min, 4 C
# T5 sequence: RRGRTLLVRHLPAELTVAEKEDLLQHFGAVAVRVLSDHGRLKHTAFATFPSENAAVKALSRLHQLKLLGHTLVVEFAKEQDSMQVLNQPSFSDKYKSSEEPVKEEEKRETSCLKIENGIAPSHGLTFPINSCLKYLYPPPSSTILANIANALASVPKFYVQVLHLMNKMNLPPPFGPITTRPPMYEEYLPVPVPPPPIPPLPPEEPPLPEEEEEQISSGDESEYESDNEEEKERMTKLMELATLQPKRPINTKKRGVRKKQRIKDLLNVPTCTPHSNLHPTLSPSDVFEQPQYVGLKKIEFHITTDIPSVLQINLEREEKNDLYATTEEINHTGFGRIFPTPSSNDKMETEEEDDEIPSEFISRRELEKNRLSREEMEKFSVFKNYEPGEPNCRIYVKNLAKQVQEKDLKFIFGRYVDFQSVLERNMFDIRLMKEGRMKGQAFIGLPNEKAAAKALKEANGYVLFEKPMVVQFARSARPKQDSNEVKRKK
# [6] = molecular target: T6, snrpB2 (Dictyostelium discoideum) (UniProt Q54J05); details: 20 nM protein, 1.5 uM RNA pool; 20 mM HEPES pH 7.8, 70 mM KCl, 10 mM NaCl, 10% glycerol, 2 mM DTT, 0.1 ug/uL BSA; 30 min, 4 C
# T6 sequence: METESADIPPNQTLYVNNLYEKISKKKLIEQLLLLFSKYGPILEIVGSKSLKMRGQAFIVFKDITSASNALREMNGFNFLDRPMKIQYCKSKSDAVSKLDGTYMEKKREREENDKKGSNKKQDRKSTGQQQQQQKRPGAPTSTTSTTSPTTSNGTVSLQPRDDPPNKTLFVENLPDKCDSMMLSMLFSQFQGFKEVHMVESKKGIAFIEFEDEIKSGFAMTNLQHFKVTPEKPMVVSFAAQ
# [7] = molecular target: T7, TVAG_371220 (Trichomonas vaginalis) (UniProt A2FYE4); details: 20 nM protein, 1.5 uM RNA pool; 20 mM HEPES pH 7.8, 70 mM KCl, 10 mM NaCl, 10% glycerol, 2 mM DTT, 0.1 ug/uL BSA; 30 min, 4 C
# T7 sequence: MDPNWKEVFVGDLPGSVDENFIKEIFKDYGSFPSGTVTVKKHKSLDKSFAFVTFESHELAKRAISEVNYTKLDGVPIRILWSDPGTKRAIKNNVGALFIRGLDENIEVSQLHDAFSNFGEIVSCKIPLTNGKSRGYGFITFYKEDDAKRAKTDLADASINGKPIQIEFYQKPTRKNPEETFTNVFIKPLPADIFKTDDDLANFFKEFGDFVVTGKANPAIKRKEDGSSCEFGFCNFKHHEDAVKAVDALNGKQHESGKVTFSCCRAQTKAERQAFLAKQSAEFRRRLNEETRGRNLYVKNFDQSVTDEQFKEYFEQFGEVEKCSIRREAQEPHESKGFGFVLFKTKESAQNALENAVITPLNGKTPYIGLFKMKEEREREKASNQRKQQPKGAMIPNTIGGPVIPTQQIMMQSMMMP
# [8] = molecular target: pabpc4 (Xenopus tropicalis) (UniProt A0A8J0QFT8); details: 20 nM protein, 1.5 uM RNA pool; 20 mM HEPES pH 7.8, 70 mM KCl, 10 mM NaCl, 10% glycerol, 2 mM DTT, 0.1 ug/uL BSA; 30 min, 4 C
# pabpc4 (Xenopus tropicalis), sequence (A0A8J0QFT8 entry or part of it): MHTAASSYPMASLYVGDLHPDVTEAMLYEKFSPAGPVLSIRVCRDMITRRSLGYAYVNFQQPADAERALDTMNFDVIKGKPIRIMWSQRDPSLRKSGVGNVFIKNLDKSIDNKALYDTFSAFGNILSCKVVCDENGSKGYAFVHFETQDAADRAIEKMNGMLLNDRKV
# [9] = molecular target: T8, Smp_006320 (Schistosoma mansoni) (UniProt G4VQQ6); details: 20 nM protein, 1.5 uM RNA pool; 20 mM HEPES pH 7.8, 70 mM KCl, 10 mM NaCl, 10% glycerol, 2 mM DTT, 0.1 ug/uL BSA; 30 min, 4 C
# T8 sequence: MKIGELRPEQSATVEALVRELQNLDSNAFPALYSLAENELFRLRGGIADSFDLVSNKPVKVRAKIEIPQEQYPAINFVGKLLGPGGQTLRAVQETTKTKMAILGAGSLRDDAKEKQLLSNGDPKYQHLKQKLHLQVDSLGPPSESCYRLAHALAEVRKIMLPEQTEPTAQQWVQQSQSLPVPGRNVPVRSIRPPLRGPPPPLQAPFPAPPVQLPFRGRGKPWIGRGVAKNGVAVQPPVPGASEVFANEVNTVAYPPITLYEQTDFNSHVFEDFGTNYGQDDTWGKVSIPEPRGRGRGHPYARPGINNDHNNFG
substance,measurement,setting,value
AUAUUGU [RNAcompete motif RNCMPT00478],binding signal (z-score (mean of top ten 7-mers)),[1],7.33
AUAAUA [RNAcompete motif RNCMPT00637],binding signal (z-score (mean of top ten 7-mers)),[2],13
UAGGNUA [RNAcompete motif RNCMPT00093],binding signal (z-score (mean of top ten 7-mers)),[3],12.1
AAAAAA [RNAcompete motif RNCMPT00501],binding signal (z-score (mean of top ten 7-mers)),[4],8.02
UUACGUA [RNAcompete motif RNCMPT00630],binding signal (z-score (mean of top ten 7-mers)),[5],6.68
AGCAC [RNAcompete motif RNCMPT00507],binding signal (z-score (mean of top ten 7-mers)),[6],12.9
AAAAAAG [RNAcompete motif RNCMPT00623],binding signal (z-score (mean of top ten 7-mers)),[7],11.9
AAAAAAG [RNAcompete motif RNCMPT00511],binding signal (z-score (mean of top ten 7-mers)),[8],13.4
AUAAAUA [RNAcompete motif RNCMPT00500],binding signal (z-score (mean of top ten 7-mers)),[9],8.79
